Source: patent publication US20050059089A1 (priority 2003, published 2005)
No end group written: not given here.

B1: relaxin3 B-chain (peptide, UniProt Q8WXF3 26-52, looked up)
peptide: RAAPYGVRLCGREFIRAVIFTCGGSRW
modifications: not fully specified (bridges); ends and bridges not checked; also: oxidized
notes: domain: B-chain; Bought peptide; also called oxidized relaxin-3 B-chain peptide
B2: ^125I-relaxin3 (ligand)
chain 1: RAAPYGVRLCGREFIRAVIFTCGGSRW
chain 2: DVLAGLSSSCCKWGCSKSEISSLC
modifications: ends and bridges not checked; also: 125I label, residue not given here
notes: also called radioligand; tracer

Columns and labels:
[1] = biological target: T1, GPCR142 (Homo sapiens, UniProt Q8TDU9, L329S); assay: Inhibition of forskolin-stimulated cAMP (CRE-β-galactosidase) in SK-N-MC cells; type: cell-based; parameters: The complete coding region of human GPCR142 was PCR-amplified from human genomic DNA; expressed in transfected cells; HEK293 co-transfected with Gqi5 (Ca2+); settings: SK-N-MC cells stably expressing GPCR142
Method: SK-N-MC cells stably expressing GPCR142 were established by transfection of GPCR142 expressing plasmids into SK-N-MC cells harboring a β-galactosidase gene under control of multiple cAMP responsive elements. The stable transfectants were selected by culturing the transfected cells under G418 selection (400 mg/L). The receptor expressing cells were seeded in 96-well plates at a cell density of 30,000 cells/well. After 24 h, cells were stimulated with forskolin or different peptides. Cells were cultured for an additional 6 h and the intracellular β-gal activity, which represents the intracellular cAMP accumulation, was measured as described by Liu et al. (2000), Mol. Pharmacol., 59, 420-426.

[2] = biological target: T1, GPCR142; assay: GTPγS binding assay, GPCR142 expressing cell membranes; type: biochemical; parameters: The complete coding region of human GPCR142 was PCR-amplified from human genomic DNA; expressed in transfected cells; CHO membranes (GTPγS); HEK293 co-transfected with Gα16 (Ca2+)
Method: The GPCR142 expression vector described above was transfected into CHO cells using Lipofectamine (Invitrogen) according to the manufacturer's instructions. Two days after transfection, the cells were harvested and the cell membranes were prepared by homogenizing the cells in cold 50 mM Tris-HCl, 5 mM EDTA, pH 7.5 followed by centrifugation at 4° C. 1000 g for 10 min. The supernatant was centrifuged at 4° C. 20,000 g for 30 min and the pellet was re-suspended in GTPγS binding buffer: 50 mM Tris-HCl, pH 7.4, 10 mM MgCl2, 1 mM EDTA, pH 8.0, and 100 mM NaCl using a polytron tissue homogenizer. Protease inhibitors were added to the buffer at concentrations of 1 mM PMSF, 10 μg/ml of pepstatin A, 10 μg/ml of leupeptin. Cell membranes and different concentrations of ligands were added to 96-well plates and incubated at room temperature for 20 min. ^35S-GTPγS (NEN) was then added to each well at a final concentration of […] in a final volume of 200 μL. The reactions were allowed to proceed at room temperature for 1 h, and then the mixtures were filtered though a 96-well GFC filter plate (Packard) and washed with cold washing buffer: 50 mM Tris-HCl, pH 7.4, 10 mM MgCl2. Fifty microliters of Microscint-40 (Packard) was added to each well and the plate was counted on a top counter (TopCount NTX, Packard).

[3] = biological target: T1, GPCR142; assay: Radioligand binding assay with 125I-relaxin3 (saturation and competition), COS-7 cell membranes; parameters: The complete coding region of human GPCR142 was PCR-amplified from human genomic DNA; expressed in transfected cells; settings: competition binding, COS-7 membranes
Method: (§1) The binding mixtures were incubated at room temperature for 1 h and then were filtered through 96-well GFC plates (Packard) and washed with ice-cold washing buffer: 50 mM Tris-HCl, pH 7.4. Fifty microliters of Microscint-40 were added to each well and the plates were counted in a Topcounter NTX (Packard). The radioligand binding results were analyzed using GraphPad PRISM software.
The binding assays were performed at room temperature for an incubation time of one hour. The binding mixtures were then filtered through GFC filters pre-saturated with 0.3 polyethylenimine (Sigma) and washed with cold binding buffer. The bound radioligand was counted in a top counter (TopCount/NTX, Packard) with Microscint-40. The results were analyzed by Prism 3.0 software.

[4] = biological target: T1, GPCR142; assay: Ca2+ mobilization assay (FLIPR), HEK293 cells co-expressing GPCR142 and Gα16; type: cell-based; parameters: The complete coding region of human GPCR142 was PCR-amplified from human genomic DNA; expressed in transfected cells; HEK293 co-transfected with Gα16 (Ca2+)
Method: Human embryonic kidney (HEK) 293 cells were transfected with GPCR135,.GPCR142 or co-transfected with Gqi5 (Conklin et al. (1993), Nature 363, 274-280) or Gα16 (Amatruda et al. (1991), Proc. Natl. Acad. Sci. U.S.A. 88, 5587-5591) expressing plasmids using LipofectAmine. Two days after transfection, cells were detached with PBS plus 10 mM EDTA. The detached cells were washed with DMEM-F12 medium (without phenol red, Invitrogen) and seeded in black poly-D lysine coated 96-well plates (BD Biosciences, San Jose, Calif.) at a cell density of 50,000 cell/well.

[5] = biological target: T2, human GPCR142 (human, UniProt Q8TDU9 1-374); assay: cell-based or functional assay
[6] = biological target: T2, human GPCR142; assay: competition binding with ^125I-relaxin3, membranes of COS-7 cells transiently expressing GPCR142
Method: as §1, with “(Packard).” for “(Packard). The radioligand binding results were analyzed using GraphPad PRISM software.”

[7] = biological target: T2, human GPCR142; assay: saturation radioligand binding, membranes of COS-7 cells transiently expressing GPCR142
Method: as §1, with “(Packard).” for “(Packard). The radioligand binding results were analyzed using GraphPad PRISM software.”

T1 sequence (Q8TDU9 whole entry L329S): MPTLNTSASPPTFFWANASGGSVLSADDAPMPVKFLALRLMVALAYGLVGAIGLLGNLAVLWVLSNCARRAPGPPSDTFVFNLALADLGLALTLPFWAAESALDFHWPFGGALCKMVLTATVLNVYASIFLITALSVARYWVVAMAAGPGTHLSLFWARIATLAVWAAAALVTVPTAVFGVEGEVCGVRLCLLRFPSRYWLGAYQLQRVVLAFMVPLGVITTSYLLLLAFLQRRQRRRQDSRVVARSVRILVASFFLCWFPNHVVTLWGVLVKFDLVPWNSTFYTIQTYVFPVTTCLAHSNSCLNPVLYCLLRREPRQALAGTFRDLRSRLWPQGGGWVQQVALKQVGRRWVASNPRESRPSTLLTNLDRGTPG
T2 sequence (Q8TDU9 whole entry L329S): as above

Row | Molecule | inhibition of forskolin induced β-galactosidase expression [1] | stimulation of 35S-GTPγS binding (agonist activity) [2] | displacement of 125I-relaxin3 binding to GPCR142 [3] | stimulation of Ca2+ mobilization [4] | EC50, GTPγS binding assay [5] [nM] | Ki [6] [nM] | Kd [7] [nM]
1 | CC[C@H](C)[C@@H]1NC(=O)[C@H](Cc2ccccc2)NC(=O)[C@H](CCC(=O)O)NC(=O)[C@H](CCCNC(=N)N)NC(=O)CNC(=O)[C@@H](NC(=O)[C@H](CC(C)C)NC(=O)[C@H](CCCNC(=N)N)NC(=O)[C@@H](NC(=O)CNC(=O)[C@H](Cc2ccc(O)cc2)NC(=O)[C@@H]2CCCN2C(=O)[C@H](C)NC(=O)[C@H](C)NC(=O)[C@@H](N)CCCNC(=N)N)C(C)C)CSSC[C@@H](C(=O)NCC(=O)NCC(=O)N[C@@H](CO)C(=O)N[C@@H](CCCNC(=N)N)C(=O)N[C@@H](Cc2c[nH]c3ccccc23)C(=O)O)NC(=O)[C@H]([C@@H](C)O)NC(=O)[C@H](Cc2ccccc2)NC(=O)[C@H]([C@@H](C)CC)NC(=O)[C@H](C(C)C)NC(=O)[C@H](C)NC(=O)[C@H](CCCNC(=N)N)NC1=O [relaxin3 B-chain, reference compound] | showed ligand activity, albeit with a significantly lower potency | stimulate | displaced |  |  |  | 
2 | INSL5: Human INSL5 (SEQ ID NO: 5), recombinantly expressed in COS-7 cells, relaxin/insulin superfamily peptide (KESVRLCGLEYIRTVIYICASSRWQDLQTLCCTDGCSMTDLSALC; ends and bridges not checked; cysteine pairing not given here; listed as Homo sapiens) | dose-dependently inhibits | stimulated GTPγS binding | specifically displaced | stimulated Ca2+ mobilization |  |  | 
3 | B1 |  |  |  |  | ~100 | 85 | 
4 | B2 |  |  |  |  |  |  | 1.9
